{"source": "patent US20240239878A1", "about": "(SHANGHAI QILU PHARMACEUTICAL RESEARCH AND DEVELOPMENT CENTRE, published 2024)", "key": {"[1]": {"molecular_target": "T1, human DLL3 antigen protein (Kactus Biosystems, Cat. No. DLL-HM103) (human, UniProt Q9NYJ7 27-492)", "T1 sequence": "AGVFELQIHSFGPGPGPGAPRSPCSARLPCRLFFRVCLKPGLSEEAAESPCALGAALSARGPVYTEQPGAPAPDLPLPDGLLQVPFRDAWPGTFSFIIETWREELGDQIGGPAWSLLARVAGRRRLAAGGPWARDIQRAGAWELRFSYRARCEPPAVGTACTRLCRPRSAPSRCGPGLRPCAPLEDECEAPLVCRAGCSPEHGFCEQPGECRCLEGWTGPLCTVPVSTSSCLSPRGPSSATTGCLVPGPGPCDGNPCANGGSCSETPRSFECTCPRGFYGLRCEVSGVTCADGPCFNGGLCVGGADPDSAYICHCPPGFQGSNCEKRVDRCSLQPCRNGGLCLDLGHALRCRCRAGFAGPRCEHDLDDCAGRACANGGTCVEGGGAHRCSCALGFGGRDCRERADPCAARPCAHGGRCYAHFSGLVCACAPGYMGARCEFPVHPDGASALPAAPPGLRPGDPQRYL", "test": "SPR (Biacore 8K), antibody captured on anti-human Fc, DLL3 in solution", "experimental": "The affinity and kinetic properties of the humanized anti-DLL3 antibody to human DLL3 were analyzed using a Biacore 8K instrument. CM5 chips were activated with EDC and NHS, followed by immobilization of anti-human Fc murine mAb and blocked with ethanolamine.\nHuman DLL3 was diluted two-fold serially to serial concentrations (100 nM-0.39 nM) and associated for 90 s and dissociated for 600 s at a flow rate of 50 μL/min.\nAfter completion of each round of the experiment, the captured antibody was removed together with the antigen by washing with a 3M MgCl₂ solution at a flow rate of 30 μL/min for 30 s to complete the regeneration of the chip. The raw data were analyzed using Biacore Insight Evaluation Software (3.0.12.15655) software and fitted with a (1:1) Langmuir model with."}, "[2]": {"molecular_target": "T2, human DLL3 on SHP-77 cells (human, UniProt Q9NYJ7 27-618)", "T2 construct": "also called DLL3-expressing cells (SHP-77)", "T2 sequence": "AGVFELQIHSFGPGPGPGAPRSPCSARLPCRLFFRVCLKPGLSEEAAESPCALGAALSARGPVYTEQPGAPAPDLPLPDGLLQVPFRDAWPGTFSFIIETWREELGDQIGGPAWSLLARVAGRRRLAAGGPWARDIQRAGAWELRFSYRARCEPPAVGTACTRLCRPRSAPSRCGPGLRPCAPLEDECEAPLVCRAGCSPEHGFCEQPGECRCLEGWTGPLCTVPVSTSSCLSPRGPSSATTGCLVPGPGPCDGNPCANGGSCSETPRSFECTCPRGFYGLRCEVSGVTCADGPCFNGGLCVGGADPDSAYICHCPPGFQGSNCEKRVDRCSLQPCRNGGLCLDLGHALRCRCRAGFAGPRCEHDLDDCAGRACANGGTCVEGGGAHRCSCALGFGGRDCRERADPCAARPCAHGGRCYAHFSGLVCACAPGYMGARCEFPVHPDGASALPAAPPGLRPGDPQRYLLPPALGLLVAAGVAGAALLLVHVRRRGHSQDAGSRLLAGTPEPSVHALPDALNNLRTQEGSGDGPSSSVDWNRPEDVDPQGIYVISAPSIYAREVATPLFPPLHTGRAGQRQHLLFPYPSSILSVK", "test": "flow cytometry, SHP-77 cells", "experimental": "SHP-77 cells were cultured. The culture medium for SHP-77 cells was RPMI1640+10% FBS. The cells were cultured in a T75 cell culture flask at a 37° C. 5% CO₂ incubator. When using cells, they are washed with sterile DPBS, digested with 0.25% trypsin EDTA for about 5 minutes, and then stopped with a complete medium.\nThe digested cells were centrifuged at 1000 rpm for 5 min at room temperature. The supernatant was discarded and the cells were resuspended in 100 μL of 1% BSA (in PBS). The cells were counted and adjusted to a cell density of 1E6/m. The dilute cells were plated in a 96-well round-bottom culture plate (corning 3799), and centrifuged at 1500 rpm for 5 min at 4° C. The supernatant was discarded and the cells were stored at 4° C. until use. Antibody samples to be tested were diluted with 1% BSA (in PBS) at a starting concentration of 100 nM, downwards by a 10-fold gradient for 7 concentrations. The cells were resuspended with the diluted antibody at 100 μL/well and incubated for 1 hour at 4° C. The cells were centrifuged at 1500 rpm for 5 minutes at 4° C. and the supernatant was discarded. The cells were resuspended and washed with 160 μL of 1% BSA (in PBS), centrifuged at 1500 rpm for 5 minutes at 4° C. The supernatant was discarded. The secondary antibody (goat anti human IgG Fc PE) was diluted 1:200 with 1% BSA (in PBS) according to the manufacturer's instructions and the cells were resuspended with the diluted secondary antibody, 100 µL/well, and incubated for 0.5 h at 4° C. The cells were centrifuged at 1500 rpm for 5 minutes at 4° C. and the supernatant was discarded. The cells were resuspended and washed with 160 μL of 1% BSA (in PBS), centrifuged at 1500 rpm for 5 minutes at 4° C. The supernatant was discarded. The cells were resuspended in 100 μL of 1% BSA (in PBS), and filtered across a 300 mesh gauze. The mean fluorescence intensity of the PE channels was measured by flow cytometry.\nThe analyzed mean fluorescence intensity was imported into Graphpad to analyze the median-binding concentration (hereinafter referred to as EC50) of antibody and cell and the top mean fluorescence intensity (Top MFI)."}, "[3]": {"molecular_target": "T3, human DLL4 (Sino Biological, Cat. No. 10171-H08H) (human, UniProt Q9NR61 27-529)", "T3 construct": "also called family protein DLL4", "T3 sequence (Q9NR61 27-529 limits assumed)": "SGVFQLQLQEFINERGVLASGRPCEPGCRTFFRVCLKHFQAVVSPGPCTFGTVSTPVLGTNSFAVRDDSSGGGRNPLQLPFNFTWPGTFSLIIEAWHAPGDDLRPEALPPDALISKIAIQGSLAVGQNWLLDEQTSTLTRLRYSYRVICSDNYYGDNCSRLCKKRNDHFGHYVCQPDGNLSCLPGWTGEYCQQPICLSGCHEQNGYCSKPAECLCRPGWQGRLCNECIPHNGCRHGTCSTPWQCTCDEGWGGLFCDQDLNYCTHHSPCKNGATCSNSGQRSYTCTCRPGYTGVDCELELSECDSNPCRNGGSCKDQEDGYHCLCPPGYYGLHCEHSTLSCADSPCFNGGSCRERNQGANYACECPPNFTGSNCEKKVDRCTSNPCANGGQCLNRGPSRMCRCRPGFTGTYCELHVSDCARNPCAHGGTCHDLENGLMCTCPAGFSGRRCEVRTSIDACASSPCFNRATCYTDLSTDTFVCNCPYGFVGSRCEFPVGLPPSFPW", "test": "ELISA, plate coated with human DLL4 at 1 ug/mL, OD 450nm", "experimental": "(§1) The antigenic proteins human DLL1 (SinoBiological, cat. No. 11635-H08H) or human DLL4 (SinoBiological, cat. No. 10171-H08H) were dissolved in 1×PBS at a concentration of 1 μg/mL. […] The antigen was washed three times with PBST, 300 μL/well. The antigen was blocked with 1% BSA (in PBST), 200 µL/well, and incubated at 37° C. for 1.5 hours.\n(§2) Antibodies to be tested were diluted with 1% BSA (in PBS) at a starting concentration of 100 nM, downwards by a 10-fold gradient for 7 concentrations. The plates were washed three times with PBST, 300 μL/well. The diluted antibody was added to an ELISA plate at 100 μL/well and incubated at room temperature for 2 hours. The antibodies were washed three times with PBST, 300 μL/well. The secondary antibodies (goat anti-human IgG Fc for DLL4 (HRP), 1:20000 dilution; HRP goat anti-mouse IgG (H+L) for DLL1, 1:10000 dilution) were diluted with 1% BSA in PBST. The diluted secondary antibodies were added to the ELISA plate at 100 μL/well and incubated at room temperature for 1 hour. The plates were washed 6 times with PBST, 300 μL/well. The developing solution (TMA and TMB 1:1 mixed) was prepared. The developing solution was added to the plate, 100 μL/well, and incubated in the dark for 5 min. 50 μL of ELISA stop solution was added to the plate and shaken well."}, "[4]": {"molecular_target": "T4, human DLL1 (Sino Biological, Cat. No. 11635-H08H) (human, UniProt O00548 18-545)", "T4 construct": "also called family protein DLL1", "T4 sequence": "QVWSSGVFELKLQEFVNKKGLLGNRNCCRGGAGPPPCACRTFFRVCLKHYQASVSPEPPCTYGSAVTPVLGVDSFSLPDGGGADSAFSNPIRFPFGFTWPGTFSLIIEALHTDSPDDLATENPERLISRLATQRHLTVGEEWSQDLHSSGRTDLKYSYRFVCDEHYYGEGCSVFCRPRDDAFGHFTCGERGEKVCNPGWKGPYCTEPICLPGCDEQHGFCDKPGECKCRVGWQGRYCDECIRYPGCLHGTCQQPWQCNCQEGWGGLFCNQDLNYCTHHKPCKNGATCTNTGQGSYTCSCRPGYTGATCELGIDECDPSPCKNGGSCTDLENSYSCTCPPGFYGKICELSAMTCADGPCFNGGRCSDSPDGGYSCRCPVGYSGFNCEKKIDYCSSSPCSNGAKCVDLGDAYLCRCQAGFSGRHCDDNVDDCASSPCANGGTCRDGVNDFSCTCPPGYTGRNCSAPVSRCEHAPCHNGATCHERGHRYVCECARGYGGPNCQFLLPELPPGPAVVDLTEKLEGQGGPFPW", "test": "ELISA, plate coated with human DLL1 at 1 ug/mL, OD 450nm", "experimental": "as §1, §2"}, "[5]": {"molecular_target": "T1, human DLL3 antigen protein (Kactus …)", "test": "affinity assay with human DLL3 antigen protein (kinetics; method not restated, Biacore as in Example 10 implied)"}, "[6]": {"molecular_target": "T2, human DLL3 on SHP-77 cells", "test": "flow cytometry, SHP-77 cells", "remark": "listed apart in the source"}}, "note": "Where two headings read alike, the source gives them in different places."}
{"binder": "H2-45E4D7 mouse hybridoma-derived humanized anti-DLL3 antibody (antibody, V domains shown) VH: QVQLVQSGAEVKKPGASVKVSCKASGYTFTSHWITWVRQAPGQGLEWMGDIYPISGSTNNNEKFRNRVTMTRDTSTSTVYMELSSLRSEDTAVYYCAKIITVGGAYVMDYWGQGTLVTVSS VL: EIVMTQSPATLSVSPGERATLSCRASQSVRNNLHWYQQKPGQAPRLLIKYVSQSISGIPARFSGSGSGTEFTLTISSLQSEDFAVYYCQQSNSWPLTFGGGTKLEIK", "values": [{"measurement": "Kd", "setting": "[1]", "result": 246, "unit": "pM"}, {"measurement": "koff", "setting": "[1]", "result": "5.78e-05", "unit": "s⁻¹"}, {"measurement": "kon", "setting": "[1]", "result": 235000, "unit": "M⁻¹ s⁻¹"}, {"measurement": "EC50", "setting": "[2]", "result": 2230, "unit": "pM"}, {"measurement": "Top MFI", "setting": "[2]", "result": 1610, "unit": "MFI"}, {"measurement": "binding result", "setting": "[3]", "result": "no binding (tested: 100 nM)"}, {"measurement": "binding result", "setting": "[4]", "result": "no binding (tested: 100 nM)"}]}
{"binder": "hDLL3-3-1-NA humanized antibody variant (antibody, V domains shown) VH: EVQLVESGGGLVQPGGSLRLSCAASTYTISSGYMGWFRQAPGKEREGVAAIYIGGSTTLYADSVKGRFTISRDNSKNTLYLQMNSLRAEDTAVYYCAAQLRPNAAYHPLDGRKYNYWGQGTLVTVSS", "values": [{"measurement": "Kd", "setting": "[5]", "result": 105, "unit": "pM"}, {"measurement": "koff", "setting": "[5]", "result": 0.000135, "unit": "s⁻¹"}, {"measurement": "kon", "setting": "[5]", "result": "1.29e+06", "unit": "M⁻¹ s⁻¹"}, {"measurement": "EC50", "setting": "[6]", "result": 104, "unit": "pM"}, {"measurement": "Top MFI", "setting": "[6]", "result": 1270, "unit": "MFI"}]}
{"binder": "hDLL3-3-1-QS humanized antibody variant (antibody, V domains shown) VH: EVQLVESGGGLVQPGGSLRLSCAASTYTISSGYMGWFRQAPGKEREGVAAIYIGGSTTLYADSVKGRFTISRDNSKNTLYLQMNSLRAEDTAVYYCAAQLRPQSAYHPLDGRKYNYWGQGTLVTVSS", "values": [{"measurement": "Kd", "setting": "[5]", "result": 5020, "unit": "pM"}, {"measurement": "koff", "setting": "[5]", "result": 0.00611, "unit": "s⁻¹"}, {"measurement": "kon", "setting": "[5]", "result": "1.22e+06", "unit": "M⁻¹ s⁻¹"}, {"measurement": "EC50", "setting": "[6]", "result": 55, "unit": "pM"}, {"measurement": "Top MFI", "setting": "[6]", "result": 1010, "unit": "MFI"}]}
